Assay [1] deals with T1, recombinant canine CTLA-4 extracellular domain protein (canine, UniProt Q9XSI1 36-161, biotin on the Avi tag (BirA ligase) in the ELISA, panning and interaction assays).
T1 construct: Cloned into pFUSE containing an HA tag, made in 293T cells; The SPR analyte is called soluble cCTLA-4 ECD, and biotinylation is not mentioned there; also called cCTLA-4; cCTLA-4 ECD
T1 chain: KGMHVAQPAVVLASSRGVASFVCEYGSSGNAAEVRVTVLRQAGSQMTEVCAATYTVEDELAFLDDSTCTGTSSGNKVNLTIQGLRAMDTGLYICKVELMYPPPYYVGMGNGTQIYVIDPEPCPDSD
The assay can be described thus: ELISA; the axis is the amount of coated CTLA4, not the mAb concentration. In general terms: An ELISA detects its analyte on a solid surface through an enzyme-linked reagent.

Assay [2] deals with T1, recombinant canine CTLA-4 extracellular …. The assay can be described thus: SPR, full-length canine mAb and cCTLA-4. A general note: Surface plasmon resonance follows binding to a sensor surface in real time, without labels.
Assay [3] shares this target. The assay can be described thus: ELISA; the axis is the amount of CTLA4 per well, not the mAb concentration.
The target is the same in assay [4]. The assay can be described thus: SPR, mAb captured on the chip, cCTLA-4 ECD as analyte.
For assay [5], the target named is T2, human complement C1q (in normal human complement serum) (human, UniProt P02745 23-245; P02746 28-253; P02747 29-245).
T2 construct: also called human serum complement
T2 sequence (P02745 23-245 limits assumed, chain 1 of 3): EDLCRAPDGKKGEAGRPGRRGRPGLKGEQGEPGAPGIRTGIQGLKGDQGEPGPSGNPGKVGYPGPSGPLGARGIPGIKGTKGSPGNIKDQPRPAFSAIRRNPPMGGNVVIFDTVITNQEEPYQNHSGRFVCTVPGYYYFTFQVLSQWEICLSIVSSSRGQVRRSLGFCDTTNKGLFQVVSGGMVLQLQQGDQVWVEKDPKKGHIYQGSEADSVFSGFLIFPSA
T2 sequence (P02746 28-253 limits assumed, chain 2 of 3): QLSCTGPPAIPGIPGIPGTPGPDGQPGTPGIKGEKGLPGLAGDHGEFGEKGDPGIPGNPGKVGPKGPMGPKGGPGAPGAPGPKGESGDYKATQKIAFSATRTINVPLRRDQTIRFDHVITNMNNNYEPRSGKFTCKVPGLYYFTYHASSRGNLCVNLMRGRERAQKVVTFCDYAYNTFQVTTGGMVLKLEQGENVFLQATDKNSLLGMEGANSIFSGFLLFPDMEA
T2 sequence (P02747 29-245 limits assumed, chain 3 of 3): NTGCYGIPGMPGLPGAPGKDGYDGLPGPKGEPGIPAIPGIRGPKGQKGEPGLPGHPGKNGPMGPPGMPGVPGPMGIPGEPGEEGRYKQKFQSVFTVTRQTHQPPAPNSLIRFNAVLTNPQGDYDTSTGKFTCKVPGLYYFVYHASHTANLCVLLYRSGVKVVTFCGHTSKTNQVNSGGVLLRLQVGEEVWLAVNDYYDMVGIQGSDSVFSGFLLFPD
The assay can be described thus: complement fixation ELISA: antibody titrated on captured cCTLA-4, C1q of human serum detected.

In assay [6] the target is T1, recombinant canine CTLA-4 extracellular …. The assay can be described thus: scFv expression extract ELISA on cCTLA-4 (data not shown).
The target is the same in assay [7]. The assay can be described thus: ELISA; the axis is the amount of coated cCTLA-4, scFv fixed at 0.25 ug/ml.
Assay [8] has the same target. The assay can be described thus: SPR, mAb captured on the chip, cCTLA-4 ECD as analyte.

Like-named read-outs stand apart in the source and are kept apart here.

We go through eight molecules from patent US20240109967A1 (University of Pennsylvania, published 2024).

B1: B10 full-length canine IgG1 (IgGA) mAb (antibody)
heavy: EVQLVETGGDLVKPGGSLRLSCVASGFTFSDYPMNWVRQAPEKGLQLVGGINSGGSATYYTDAVKGRFTISRDNAKNTVYLQMNSLRAEDTAMYYCATSNFQYWGQGTLVTVSSASTTAPSVFPLAPSCGSTSGSTVALACLVSGYFPEPVTVSWNSGSLTSGVHTFPSVLQSSGLYSLSSMVTVPSSRWPSETFTCNVVHPASNTKVDKPVFNECRCTDTPPCPVPEPLGGPSVLIFPPKPKDILRITRTPEVTCVVLDLGREDPEVQISWFVDGKEVHTAKTQSREQQFNGTYRVVSVLPIEHQDWLTGKEFKCRVNHIDLPSPIERTISKARGRAHKPSVYVLPPSPKELSSSDTVSVTCLIKDFYPPDIDVEWQSNGQQEPERKHRMTPPQLDEDGSYFLYSKLSVDKSRWQQGDPFTCAVMHETLQNHYTDLSLSHSPGKGGGSGGGSYPYDVPDYA
light: QAVLNQPASVSAALGQRVTISCNTNIGSPYDVQWYQQLPGKSPKTIIYGNSNRPSGVPVRFSGSKSGSTATLTIAGIQAEDEADYYCQSYDDNVDGYVFGSGTQLTVLGQPKASPSVTLFPPSSEELGANKATLVCLISDFYPSGVTVAWKADGSPITQGVETTKPSKQSNNKYAASSYLSLTPDKWKSHSSFSCLVTHEGSTVEKKVAPAECS
notes: The HA tag is placed on the heavy chain; also called B10 mAb; B10 antibody
On to B1, for which, in assay [1], the “EC50 (read off the curve)” value was ~0.2 pmol biotinylated CTLA4/well. In addition, in assay [2], the Kd turned out to be 1.5 nM, the kon was 160000 M⁻¹ s⁻¹ and the t1/2 came to 46 min. The “EC50 (read off the curve)” value in assay [3] is approximately 0.9 pmol/well CTLA4. In assay [4], the Kd is 1.5 nM, the off-rate (koff) was determined as 0.00025 s⁻¹, the kon was 160000 M⁻¹ s⁻¹ and the t1/2 came out at 46 min.

B2: A1mut2 full-length canine IgG3 (IgGC) mAb, HA-tagged (antibody)
heavy: EVQLVETGGDLVKPGGSLRLSCVASGFSFSSYAMNWVRQAPEKGLQLVGGINSGGSSTYYTDAVKGRFTISRDNAKNTVYLQMNSLRAEDTAVYYCAISNWAYWGQGTLVTVSSASTTAPSVFPLAPSCGSQSGSTVALACLVSGYIPEPVTVSWNSGSLTSGVHTFPSILQSSGLYSLSSMVTVPSSRWPSETFTCNVAHPATNTKVDKPVVKECECKCNCNNCPCPGCGLLGGPSVFIFPPKPKDILVTARTPTVTCVVVDLDPENPEVQISWFVDSKQVQTANTQPREEQSNGTYRVVSVLPIGHQDWLSGKQFKCKVNNKALPSPIEEIISKTPGQAHQPNVYVLPPSRDEMSKNTVTLTCLVKDFFPPEIDVEWQSNGQQEPESKYRMTPPQLDEDGSYFLYSKLSVDKSRWQRGDTFICAVMHEALHNHYTQKSLSHSPGKGGGSGGGSYPYDVPDYA
light: QAVLNQPASVSGSLGQRVTISCTGSSSDIGKSYVAWYQQLPGTGPRTLINVDGNRASGVPDRFSVSRSGNTATLTISGLQAEDEADYHCSSWDWSLHTYVFGSGTQLTILGQPKASPSVTLFPPSSEELGANKATLVCLISDFYPSGVTVAWKADGSPITQGVETTKPSKQSNNKYAASSYLSLTPDKWKSHSSFSCLVTHEGSTVEKKVAPAECS
notes: also called A1mut2 IgGC
Turning to B2, the “EC50 (read off the curve)” value in assay [5] was approximately 0.5 ug/ml antibody.

B3: A1mut2 full-length canine IgG2 (IgGB) mAb, HA-tagged (antibody)
heavy: EVQLVETGGDLVKPGGSLRLSCVASGFSFSSYAMNWVRQAPEKGLQLVGGINSGGSSTYYTDAVKGRFTISRDNAKNTVYLQMNSLRAEDTAVYYCAISNWAYWGQGTLVTVSSASTTAPSVFPLAPSCGSTSGSTVALACLVSGYFPEPVTVSWNSGSLTSGVHTFPSVLQSSGLYSLSSMVTVPSSRWPSETFTCNVAHPASKTKVDKPVPKRENGRVPRPPDCPKCPAPEMLGGPSVFIFPPKPKDTLLIARTPEVTCVVVDLDPEDPEVQISWFVDGKQMQTAKTQPREEQFNGTYRVVSVLPIGHQDWLKGKQFTCKVNNKALPSPIERTISKARGQAHQPSVYVLPPSREELSKNTVSLTCLIKDFFPPDIDVEWQSNGQQEPESKYRTTPPQLDEDGSYFLYSKLSVDKSRWQRGDTFICAVMHEALHNHYTQESLSHSPGKGGGSGGGSYPYDVPDYA
light: QAVLNQPASVSGSLGQRVTISCTGSSSDIGKSYVAWYQQLPGTGPRTLINVDGNRASGVPDRFSVSRSGNTATLTISGLQAEDEADYHCSSWDWSLHTYVFGSGTQLTILGQPKASPSVTLFPPSSEELGANKATLVCLISDFYPSGVTVAWKADGSPITQGVETTKPSKQSNNKYAASSYLSLTPDKWKSHSSFSCLVTHEGSTVEKKVAPAECS
notes: also called A1mut2 IgGB
As to B3, the “EC50 (read off the curve)” value in assay [5] was approximately 0.6 ug/ml antibody.

B4: D5 scFv (soluble, His and HA tagged) (scFv)
scFv: QPVLTQPPSVSAALGQRVTISCTGTATNVGGGYDVQWYQQFPGRPPKTIIYGNYNRPSGVPDRFSASTSGTTATLTISGLQAEDEANYYCSSWDNSLTAYVFGSGTQLTILGGGSSRSSSSGGGGSGGGGEVQLVETGGDLMKPGGSLRLSCVASGFTFSSYSMSWVRQAPEKGLQLVAGINSGGSSTYYTDAVKGRFTISRDNAKNTLYLQMNSLRDEDTAVYYCVISNWSYWGQGTLVTVSSESPSPPNLTSGQAGQHHHHHHGAYPYDVPDYAS
notes: Canine scFv from panning round 4; also called clone D5
For B4, the “fold increase in binding over background” value in assay [6] is more than 20 fold. In assay [7], the “EC50 (read off the curve)” value was approximately 0.4 pmol biotinylated cCTLA4.

B5: B10 scFv (soluble, His and HA tagged) (scFv)
scFv: QAVLNQPASVSAALGQRVTISCNTNIGSPYDVQWYQQLPGKSPKTIIYGNSNRPSGVPVRFSGSKSGSTATLTIAGIQAEDEADYYCQSYDDNVDGYVFGSGTQLTVLGGGSSRSSSSGGGGSGGGGEVQLVETGGDLVKPGGSLRLSCVASGFTFSDYPMNWVRQAPEKGLQLVGGINSGGSATYYTDAVKGRFTISRDNAKNTVYLQMNSLRAEDTAMYYCATSNFQYWGQGTLVTVSSESPSPPNLTSGQAGQHHHHHHGAYPYDVPDYAS
notes: Canine scFv from panning round 3; also called clone B10
Take B5: in assay [6], the “fold increase in binding over background” value was more than 20 fold. In assay [7], the “EC50 (read off the curve)” value is approximately 0.6 pmol biotinylated cCTLA4.

B6: A1 scFv (soluble, His and HA tagged) (scFv)
scFv: QAVLNQPASVSGSLGQRVTISCTGSSSDIGKSYVAWYQQLPGTGPRTLINVDGNRASGVPDRFSVSRSGNTATLTISGLQAEDEADYHCSSWDWSLHTYVFGSGTQLTILGGGSSRSSSSGGGGSGGGGEVQLVESGGDLVKPAGSLRLSCVASGFSFSSYAMNWVRQAPGKGLQWIAGINSGGSSTSHIDAIKGRFTISRDNAKNTLYLQMNSLRAEDTAVYYCAISNWAYWGQGTLVTVSSESPSPPNLTSGQAGQHHHHHHGAYPYDVPDYAS
notes: Canine scFv from panning round 3; also called clone A1
For B6, the “fold increase in binding over background” value in assay [6] is more than 20 fold. Moreover, the “EC50 (read off the curve)” value in assay [7] is approximately 0.3 pmol biotinylated cCTLA4.

B7: clone A1 full-length canine IgG1 (IgGA) mAb (antibody, V domains shown)
VH: EVQLVESGGDLVKPAGSLRLSCVASGFSFSSYAMNWVRQAPGKGLQWIAGINSGGSSTSHIDAIKGRFTISRDNAKNTLYLQMNSLRAEDTAVYYCAISNWAYWGQGTLVTVSS
VL: QAVLNQPASVSGSLGQRVTISCTGSSSDIGKSYVAWYQQLPGTGPRTLINVDGNRASGVPDRFSVSRSGNTATLTISGLQAEDEADYHCSSWDWSLHTYVFGSGTQLTILG
notes: Produced only at low levels; also called A1 mAb
Turning to B7, in assay [3], the “EC50 (read off the curve)” value was approximately 0.7 pmol/well CTLA4.

B8: D5 full-length canine IgG1 (IgGA) mAb (antibody)
heavy: EVQLVETGGDLMKPGGSLRLSCVASGFTFSSYSMSWVRQAPEKGLQLVAGINSGGSSTYYTDAVKGRFTISRDNAKNTLYLQMNSLRDEDTAVYYCVISNWSYWGQGTLVTVSSASTTAPSVFPLAPSCGSTSGSTVALACLVSGYFPEPVTVSWNSGSLTSGVHTFPSVLQSSGLYSLSSMVTVPSSRWPSETFTCNVVHPASNTKVDKPVFNECRCTDTPPCPVPEPLGGPSVLIFPPKPKDILRITRTPEVTCVVLDLGREDPEVQISWFVDGKEVHTAKTQSREQQFNGTYRVVSVLPIEHQDWLTGKEFKCRVNHIDLPSPIERTISKARGRAHKPSVYVLPPSPKELSSSDTVSVTCLIKDFYPPDIDVEWQSNGQQEPERKHRMTPPQLDEDGSYFLYSKLSVDKSRWQQGDPFTCAVMHETLQNHYTDLSLSHSPGKGGGSGGGSYPYDVPDYA
light: QPVLTQPPSVSAALGQRVTISCTGTATNVGGGYDVQWYQQFPGRPPKTIIYGNYNRPSGVPDRFSASTSGTTATLTISGLQAEDEANYYCSSWDNSLTAYVFGSGTQLTILGQPKASPSVTLFPPSSEELGANKATLVCLISDFYPSGVTVAWKADGSPITQGVETTKPSKQSNNKYAASSYLSLTPDKWKSHSSFSCLVTHEGSTVEKKVAPAECS
notes: The HA tag is placed on the heavy chain; also called D5 mAb; D5 antibody
Take B8: the “EC50 (read off the curve)” value in assay [1] is ~0.2 pmol biotinylated CTLA4/well. Further, in assay [2], the dissociation constant Kd was found to be 1.5 nM, the kon stood at 120000 M⁻¹ s⁻¹ and the t1/2 worked out at 64 min. For the same molecule, in assay [8], the dissociation constant (Kd) worked out at 1.5 nM, the koff stood at 0.00018 s⁻¹, the kon came to 120000 M⁻¹ s⁻¹ and the t1/2 amounted to 64 min. In assay [3], the “EC50 (read off the curve)” value is approximately 0.7 pmol/well CTLA4.

The term Kd denotes the concentration at which binding is half-saturated. A word on the kon: it is the rate constant with which the complex forms. Broadly, the koff is the rate constant with which the complex falls apart.
